Laboratory results as given in publication PMC5977995.

How the values were obtained:
[1] = molecular target: T1, hnRNPA1 RNA-binding domain (human, UniProt P09651 1-196); experiment: UV photo-cross-linking
[2] = molecular target: T1, hnRNPA1 RNA-binding domain; experiment: EMSA

T1 sequence (P09651 1-196): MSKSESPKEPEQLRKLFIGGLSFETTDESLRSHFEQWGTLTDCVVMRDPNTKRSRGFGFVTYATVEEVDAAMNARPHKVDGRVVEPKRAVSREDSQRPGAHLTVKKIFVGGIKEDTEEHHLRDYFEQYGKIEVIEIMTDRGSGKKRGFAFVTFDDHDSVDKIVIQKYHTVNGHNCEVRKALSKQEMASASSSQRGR

B1: BrU 12-mer telomere RNA (structured_RNA)
RNA: UUAGGGUUAGGG
modifications: 5-bromouridine at position 8 (printed UUAGGGU(BrU)-AGGG)
- binding result [1]: binds

B2: 24-mer telomere RNA (structured_RNA)
RNA: UUAGGGUUAGGGUUAGGGUUAGGG
- Kd [2]: 37.6 nM
